From US5602230A, “Peptide inhibitors of selectin binding” (Centocor, Inc., priority 1995, dated 1997)
Where no end group is shown, it is not given here. The star is where a group is joined. Nif = α,α,α-trifluoro-m-toluidino-nicotinyl, O=C(c1cccnc1Nc1cccc(C(F)(F)F)c1)*

Molecular target: T1, purified human P-selectin (Homo sapiens, UniProt P16109)
T1 construct: P-selectin is isolated from human platelet lysates; from tissue; host or cells: outdated human platelet packs (platelet lysates)
T1 sequence (P16109 42-830): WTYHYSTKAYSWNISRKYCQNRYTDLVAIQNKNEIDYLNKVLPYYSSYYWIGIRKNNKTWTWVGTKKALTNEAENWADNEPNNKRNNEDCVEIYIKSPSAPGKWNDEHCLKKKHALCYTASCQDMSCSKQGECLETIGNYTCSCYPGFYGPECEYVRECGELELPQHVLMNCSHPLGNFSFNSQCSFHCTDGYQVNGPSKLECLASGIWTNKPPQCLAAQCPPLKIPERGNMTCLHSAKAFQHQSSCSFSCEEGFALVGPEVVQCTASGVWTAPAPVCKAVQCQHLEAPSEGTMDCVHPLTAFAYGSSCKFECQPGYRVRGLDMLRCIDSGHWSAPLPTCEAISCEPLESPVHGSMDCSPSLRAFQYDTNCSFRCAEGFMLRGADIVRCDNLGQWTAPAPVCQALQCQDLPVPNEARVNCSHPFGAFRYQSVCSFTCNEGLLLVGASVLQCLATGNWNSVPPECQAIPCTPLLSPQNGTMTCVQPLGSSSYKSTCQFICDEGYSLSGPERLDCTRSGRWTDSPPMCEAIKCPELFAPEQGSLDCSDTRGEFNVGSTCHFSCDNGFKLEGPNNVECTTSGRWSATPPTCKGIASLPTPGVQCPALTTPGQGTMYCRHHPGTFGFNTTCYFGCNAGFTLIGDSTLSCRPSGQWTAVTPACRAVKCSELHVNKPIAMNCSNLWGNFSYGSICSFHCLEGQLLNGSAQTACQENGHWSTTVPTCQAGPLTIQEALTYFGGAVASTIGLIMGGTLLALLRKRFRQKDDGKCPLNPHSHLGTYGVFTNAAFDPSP
Test: Neutrophil adhesion to purified P-selectin immobilized on plastic wells
Format: cell-based
Conditions: result in words
Description: Peptides can be screened for their ability to inhibit adhesion to cells, for example, neutrophil adhesion to purified P-selectin immobilized on plastic wells, using the assay described by Geng, et al., Nature 343, 757-760 (1990).
Human neutrophils are isolated from heparinized whole blood by density gradient centrifugation on Mono-Poly resolving media, Flow Laboratories. Neutrophil suspensions are greater than 98% pure and greater than 95% viable by trypan blue exclusion. For adhesion assays, neutrophils are suspended at a concentration of 2×10^6 cells/mL in Hanks' balanced salt solution containing 1.26 mM Ca^2+ and 0.81 mM Mg^2+ (HBSS, Gibco) with […] human serum albumin (HBSS/HSA). Adhesion assays are conducted in triplicate in 96-well microtiter plates, Corning, incubated at 4° C. overnight with 50 microliters of various protein solutions.
P-selectin is isolated from human platelet lysates by immunoaffinity chromatography on antibody S12-Sepharose™ and ion-exchange chromatography on a Mono-Q™ column (FLPC, Pharmacia Fine Chemicals), as follows. […]
Bound P-selectin is eluted from the S12 Affigel with 100 mL of 80% ethylene glycol, 1 mM MES pH 6.0, 0.01% Lubrol PX. Peak fractions with absorbance at 280 nm are pooled. […]

| inhibit the adhesion of human neutrophils to purified human P-selectin (FIG. I) | Substance |
| --- | --- |
| inhibit the adhesion | SEQ ID NO: 10: peptide of Formula I shown in FIG. I; its sequence is not printed in the text (Nif-TDLVAIQ-NH2) |
| inhibit the adhesion | YTDLVAI-NH2 [SEQ ID NO: 4, Tyr-Thr-Asp-Leu-Val-Ala-Ile-NH2] |
